In US20110038920A1, “WOUND HEALING COMPOSITIONS AND TREATMENTS” (priority 2008, published 2011):

Test system: OPN expression in Swiss 3T3 fibroblasts
Assay: Induction of OPN expression in fibroblasts by growth factors/cytokines (Western blot)
Type: cell-based
Details: 8 h; PDGF-BB 20, EGF 100, TGFβ1 10, TGFβ3 10, IL-6 50, TNFα 10 ng/ml
Description: Protein samples (20 μg; collected in T-PER® Reagent; PIERCE Biotechnology) were separated on Tris-Glycine Gels (Invitrogen), transferred to PVDF, and blotted according to standard protocols (antibody details are provided above).
Swiss 3T3, J774.1 macrophages, and RBL mast cells were cultured in DMEM+10% fetal calf serum. Primary neutrophils were harvested by peritoneal lavage 4 h post-thioglycollate-induced peritonitis, and primary macrophages were derived from mouse bone marrow and activated with LPS (500 ng/ml).

B1: TGFβ3: growth factor/cytokine, BioVision (protein, UniProt P10600 301-412, looked up)
Transforming growth factor …: ALDTNYCFRNLEENCCVRPLYIDFRQDLGWKWVHEPKGYYANFCSGPCPYLRSADTTHSTVLGLYNTLNPEASASPCCVPQDLEPLTILYYVGRTPKVEQLSNMVVKSCKCS
modifications: Transforming growth factor beta-3
notes: growth factor/cytokine, BioVision
ability to upregulate OPN expression in Swiss 3T3s: not
